The source of these data is patent US20200024335A1 (BERG, published 2020).

Assay [1] concerns the target E. coli-expressed partial FLNC (aa 1438-2128) (Homo sapiens (Human)) (UniProt Q14315). The experiment in a line: ELISA, coated protein, negative control.
Assay [2] has as its target E. coli-expressed partial FLNA (aa1443-2131) (Homo sapiens (Human)) (UniProt P21333). The experiment in a line: ELISA, coated protein, negative control. (In an ELISA, binding on a coated surface is turned into a signal by an enzyme label.)
Assay [3] deals with T1, HEK293-expressed full length FLNB (human, UniProt O75369 2-2601).
T1 construct: prepared by GenScript; also called full length human FLN-B protein
Description: ELISA, coated protein, negative control.

For assay [4], the target named is HEK293-expressed full length FLNA (Homo sapiens (Human)) (UniProt P21333). The experiment in a line: ELISA, coated protein, negative control.
Assay [5] addresses E. coli-expressed partial FLNB (aa1416-2089), Filamin B immunogen (human) (UniProt O75369). The experiment in a line: ELISA, coated protein, negative control.
The target in assay [6] is T1, HEK293-expressed full length FLNB. Description: BLI (Octet), antibody on anti-mIgG Fc capture sensor, FLNB 25 nM.
In assay [7] the target is 10% pooled normal human serum. Description: ELISA, coated 10% serum, hybridoma supernatant.
The target in assay [8] is T2, E. coli-expressed partial FLNB (aa1416-2089), Filamin B immunogen (human, UniProt O75369 1416-2089).
T2 construct: covers filamin repeats 13-19; also called partial FLNB protein
T2 sequence: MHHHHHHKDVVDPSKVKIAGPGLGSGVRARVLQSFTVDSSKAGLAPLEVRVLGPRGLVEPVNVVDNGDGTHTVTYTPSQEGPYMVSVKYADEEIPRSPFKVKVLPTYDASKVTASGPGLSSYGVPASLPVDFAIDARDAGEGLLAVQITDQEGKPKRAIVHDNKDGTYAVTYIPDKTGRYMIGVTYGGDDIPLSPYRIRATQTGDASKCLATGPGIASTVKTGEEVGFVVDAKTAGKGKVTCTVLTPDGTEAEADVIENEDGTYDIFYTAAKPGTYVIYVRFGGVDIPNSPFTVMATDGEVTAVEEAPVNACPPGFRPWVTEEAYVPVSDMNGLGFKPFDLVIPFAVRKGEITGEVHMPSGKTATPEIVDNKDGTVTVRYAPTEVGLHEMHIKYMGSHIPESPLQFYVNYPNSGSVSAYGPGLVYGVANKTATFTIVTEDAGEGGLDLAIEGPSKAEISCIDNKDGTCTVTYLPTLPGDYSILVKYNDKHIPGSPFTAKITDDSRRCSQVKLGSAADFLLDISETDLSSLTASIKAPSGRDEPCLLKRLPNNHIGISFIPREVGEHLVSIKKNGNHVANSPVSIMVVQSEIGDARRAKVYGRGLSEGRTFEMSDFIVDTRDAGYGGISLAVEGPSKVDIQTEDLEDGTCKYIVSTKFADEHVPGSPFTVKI
The experiment in a line: ELISA, coated protein, hybridoma supernatant. The source says:
(§1) Filamin A (FLNA) and Filamin C (FLNC) are the other two members in the Filamin family; they share 69% and 61% identity to FLNB, respectively. The clones were screened for negative with E. coli-expressed partial FLNA (aa1443-2131) and E. coli-expressed FLNC (aa 1438-2128) which cover the same region as FLN-B (aa1416-2089), and HEK293-expressed full length FLNA. 10% human serum was further tested for any unexpected cross-reactivity. The Partial FLNA (aa 1443-2131) protein sequence is shown in SEQ ID NO: 32. Partial FLNC (aa 1438-2128) protein sequence is shown in SEQ ID NO: 33. Full length FLNA protein sequence is shown in SEQ ID NO: 34.
(§2) Next, the proteins were coated and tested for supernatants from clones 3F10 and 5H7 by ELISA. […] FLNB proteins were tested for specificity, while homologous proteins FLNA and FLNC from the same family were tested for any cross-reactivity. 10% pooled normal human serum was also included for any unexpected non-specific binding.

Assay [9] has as its target T1, HEK293-expressed full length FLNB. Description: ELISA, coated protein, hybridoma supernatant.
Excerpt: as §1, §2

Assay [10] deals with T3, E. coli-expressed partial FLNA (aa1443-2131) (Homo sapiens (Human), UniProt P21333 1443-2131).
T3 construct: Covers the same region as FLNB aa1416-2089; also called Partial Filamin A (aa 1443-2131)
T3 sequence: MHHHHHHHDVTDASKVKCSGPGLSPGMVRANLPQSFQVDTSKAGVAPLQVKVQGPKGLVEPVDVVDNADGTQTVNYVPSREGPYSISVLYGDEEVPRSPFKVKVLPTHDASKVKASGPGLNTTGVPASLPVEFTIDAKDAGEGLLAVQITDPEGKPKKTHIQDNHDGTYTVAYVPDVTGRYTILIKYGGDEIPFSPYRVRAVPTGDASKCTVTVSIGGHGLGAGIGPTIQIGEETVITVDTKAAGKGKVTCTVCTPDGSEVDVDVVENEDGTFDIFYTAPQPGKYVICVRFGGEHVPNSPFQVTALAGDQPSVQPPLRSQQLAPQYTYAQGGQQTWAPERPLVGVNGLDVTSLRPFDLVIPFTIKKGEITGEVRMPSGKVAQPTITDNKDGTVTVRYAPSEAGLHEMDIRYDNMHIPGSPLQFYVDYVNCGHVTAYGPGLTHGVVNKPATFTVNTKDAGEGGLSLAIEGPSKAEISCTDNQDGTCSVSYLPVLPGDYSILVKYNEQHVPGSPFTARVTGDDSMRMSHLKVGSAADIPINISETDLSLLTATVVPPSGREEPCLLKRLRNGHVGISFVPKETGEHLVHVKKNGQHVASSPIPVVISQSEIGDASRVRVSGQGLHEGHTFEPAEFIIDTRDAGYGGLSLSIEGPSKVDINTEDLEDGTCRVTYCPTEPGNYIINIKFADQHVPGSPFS
Description: ELISA, coated protein, hybridoma supernatant.
Excerpt: as §1, §2

Assay [11] deals with T4, E. coli-expressed partial FLNC (aa 1438-2128) (Homo sapiens (Human), UniProt Q14315 1438-2128).
T4 construct: Covers the same region as FLNB aa1416-2089; also called Partial Filamin C (aa 1438-2128)
T4 sequence: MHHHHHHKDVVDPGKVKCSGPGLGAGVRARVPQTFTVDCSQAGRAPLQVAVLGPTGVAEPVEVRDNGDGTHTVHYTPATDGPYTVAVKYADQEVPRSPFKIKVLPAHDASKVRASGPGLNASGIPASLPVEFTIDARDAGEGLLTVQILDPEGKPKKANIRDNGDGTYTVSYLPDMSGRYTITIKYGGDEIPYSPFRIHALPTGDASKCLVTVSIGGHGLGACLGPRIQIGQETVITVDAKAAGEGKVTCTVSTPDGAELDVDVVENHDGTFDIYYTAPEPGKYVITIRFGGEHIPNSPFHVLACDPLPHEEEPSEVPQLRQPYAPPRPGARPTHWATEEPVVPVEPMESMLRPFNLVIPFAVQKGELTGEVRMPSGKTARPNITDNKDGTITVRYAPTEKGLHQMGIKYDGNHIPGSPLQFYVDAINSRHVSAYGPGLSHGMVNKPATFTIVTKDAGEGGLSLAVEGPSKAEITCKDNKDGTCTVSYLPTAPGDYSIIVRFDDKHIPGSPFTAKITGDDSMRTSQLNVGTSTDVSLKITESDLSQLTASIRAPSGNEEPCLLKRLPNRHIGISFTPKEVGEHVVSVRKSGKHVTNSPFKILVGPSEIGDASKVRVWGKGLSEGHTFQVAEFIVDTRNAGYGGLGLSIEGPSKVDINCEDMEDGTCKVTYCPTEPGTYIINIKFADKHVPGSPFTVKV
The experiment in a line: ELISA, coated protein, hybridoma supernatant.
Excerpt: as §1, §2

Assay [12] concerns the target T5, HEK293-expressed full length FLNA (Homo sapiens (Human), UniProt P21333 2-2647).
T5 construct: also called Full length Filamin A
Description: ELISA, coated protein, hybridoma supernatant.
Excerpt: as §1, §2

The target in assay [13] is HEK293-expressed full length FLNA (Homo sapiens (Human)) (UniProt P21333). Description: ELISA, coated protein, hybridoma supernatant.

Some results are limits rather than exact numbers.

T1 sequence (O75369 other isoform, or with tags, fused parts or gaps): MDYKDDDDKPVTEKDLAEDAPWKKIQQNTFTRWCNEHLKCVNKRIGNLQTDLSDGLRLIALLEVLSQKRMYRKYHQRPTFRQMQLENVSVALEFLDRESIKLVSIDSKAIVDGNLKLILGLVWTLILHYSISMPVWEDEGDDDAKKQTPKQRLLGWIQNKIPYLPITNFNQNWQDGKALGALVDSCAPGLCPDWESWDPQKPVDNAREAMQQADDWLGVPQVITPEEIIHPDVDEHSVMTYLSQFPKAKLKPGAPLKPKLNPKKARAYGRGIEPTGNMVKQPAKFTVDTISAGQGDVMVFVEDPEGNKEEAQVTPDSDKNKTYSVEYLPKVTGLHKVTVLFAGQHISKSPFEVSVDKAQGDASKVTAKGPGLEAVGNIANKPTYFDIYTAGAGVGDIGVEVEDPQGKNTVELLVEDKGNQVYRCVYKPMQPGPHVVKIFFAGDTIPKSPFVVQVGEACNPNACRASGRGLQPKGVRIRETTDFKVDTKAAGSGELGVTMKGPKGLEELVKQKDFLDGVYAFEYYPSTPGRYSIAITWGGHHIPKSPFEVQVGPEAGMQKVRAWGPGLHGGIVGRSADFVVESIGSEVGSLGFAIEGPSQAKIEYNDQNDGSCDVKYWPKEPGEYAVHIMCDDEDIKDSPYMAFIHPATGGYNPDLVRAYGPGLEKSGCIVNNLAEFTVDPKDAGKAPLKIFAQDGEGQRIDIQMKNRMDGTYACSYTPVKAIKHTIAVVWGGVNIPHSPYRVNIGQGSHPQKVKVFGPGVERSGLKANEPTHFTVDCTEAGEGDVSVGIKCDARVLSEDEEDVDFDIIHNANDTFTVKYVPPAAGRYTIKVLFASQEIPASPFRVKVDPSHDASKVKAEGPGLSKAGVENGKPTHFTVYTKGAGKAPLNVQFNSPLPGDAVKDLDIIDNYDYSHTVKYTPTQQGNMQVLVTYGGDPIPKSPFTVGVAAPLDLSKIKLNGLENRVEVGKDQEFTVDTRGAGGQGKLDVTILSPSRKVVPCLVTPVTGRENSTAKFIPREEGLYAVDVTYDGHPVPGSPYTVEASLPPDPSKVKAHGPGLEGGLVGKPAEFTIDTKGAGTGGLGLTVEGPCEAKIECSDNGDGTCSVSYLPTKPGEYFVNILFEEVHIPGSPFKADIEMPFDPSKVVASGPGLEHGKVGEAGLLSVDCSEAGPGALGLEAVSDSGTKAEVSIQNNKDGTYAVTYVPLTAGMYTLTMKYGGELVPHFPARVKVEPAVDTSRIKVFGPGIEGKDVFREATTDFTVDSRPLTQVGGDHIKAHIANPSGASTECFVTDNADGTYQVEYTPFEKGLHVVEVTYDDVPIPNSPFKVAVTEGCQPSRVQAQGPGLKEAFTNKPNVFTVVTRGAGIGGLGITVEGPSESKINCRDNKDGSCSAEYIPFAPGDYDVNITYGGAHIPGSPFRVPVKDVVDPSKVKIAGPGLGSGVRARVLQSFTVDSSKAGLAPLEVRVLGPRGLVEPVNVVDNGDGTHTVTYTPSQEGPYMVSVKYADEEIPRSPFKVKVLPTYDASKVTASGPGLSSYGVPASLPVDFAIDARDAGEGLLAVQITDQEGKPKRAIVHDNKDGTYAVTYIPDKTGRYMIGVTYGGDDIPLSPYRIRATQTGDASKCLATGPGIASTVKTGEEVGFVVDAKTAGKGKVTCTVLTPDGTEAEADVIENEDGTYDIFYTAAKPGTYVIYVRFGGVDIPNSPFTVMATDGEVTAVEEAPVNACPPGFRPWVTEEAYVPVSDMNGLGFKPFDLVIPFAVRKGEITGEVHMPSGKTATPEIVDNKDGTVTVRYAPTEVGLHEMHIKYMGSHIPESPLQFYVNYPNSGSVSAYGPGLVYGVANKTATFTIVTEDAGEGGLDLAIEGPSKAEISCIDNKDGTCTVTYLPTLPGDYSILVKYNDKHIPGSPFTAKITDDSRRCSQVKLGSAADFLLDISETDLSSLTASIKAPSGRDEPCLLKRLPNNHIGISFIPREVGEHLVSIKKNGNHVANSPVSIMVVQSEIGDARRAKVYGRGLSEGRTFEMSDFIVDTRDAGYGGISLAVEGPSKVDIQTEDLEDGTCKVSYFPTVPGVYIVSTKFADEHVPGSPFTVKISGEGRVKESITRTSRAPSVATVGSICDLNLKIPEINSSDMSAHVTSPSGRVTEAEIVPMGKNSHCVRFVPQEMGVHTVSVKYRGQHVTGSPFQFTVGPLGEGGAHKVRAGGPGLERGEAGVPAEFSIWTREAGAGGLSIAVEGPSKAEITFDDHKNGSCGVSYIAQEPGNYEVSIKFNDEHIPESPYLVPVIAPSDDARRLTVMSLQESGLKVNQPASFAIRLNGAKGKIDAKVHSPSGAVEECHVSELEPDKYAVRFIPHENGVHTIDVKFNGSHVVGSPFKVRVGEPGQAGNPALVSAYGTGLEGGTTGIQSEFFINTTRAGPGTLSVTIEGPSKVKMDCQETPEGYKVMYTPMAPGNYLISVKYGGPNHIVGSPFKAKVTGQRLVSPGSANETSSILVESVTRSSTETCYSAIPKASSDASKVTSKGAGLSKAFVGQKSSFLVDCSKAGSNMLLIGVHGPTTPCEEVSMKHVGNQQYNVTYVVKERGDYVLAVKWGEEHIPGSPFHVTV

Turning to “Neg ctl (negative control of the specificity ELISA)”, the ELISA test result in assay [1] was found to be 0.05; in [2] it was 0.05; in assay [3], 0.06; in assay [4] it was 0.073; in assay [5], 0.04.

B1: 3F10 murine monoclonal anti-FLNB antibody (antibody, V domains shown)
VH: QVQLQQPGAELVKPGASVKLSCKASGYTFTSYWMHWVKQRPGQGLEWIGMIHPNSGSTNYNEKFKSKATLTVDKSSSTAYMQLSSLTSEDSAVYYCAIYGSGPWFAYWGQGTLVTVSA
VL: DIQMTQSPASLSASVGETVTITCRASENIYSSLAWYQQKQGKSPQLLVYYAKTLAEGVPSRFSGSGSGTQFSLKINRLQPEDFGSYYCQHHYGSPLTFGAGTKLELK
notes: Tested as hybridoma supernatant or purified antibody; also called clone 3F10; anti-FLNB antibody (3F10)
The Kd is a measure of binding affinity in units of concentration. A low value points to tighter binding. A word on the koff: it is the first-order rate constant of dissociation. Low values mean a long-lived complex, high ones a short-lived complex. Broadly, the kon is the rate constant with which the complex forms. Read a low kon as slower complex formation. B1: the equilibrium dissociation constant (Kd) in assay [6] was below 1 pM. Also, in assay [6], the koff was below 1e-07 s⁻¹. The on-rate constant (kon) in assay [6] was 270000 M⁻¹ s⁻¹. The ELISA test result in assay [7] came to 0.048; in assay [8], 3.87; in assay [9], 2.36; in assay [10], 0.05; in assay [11] it was 0.06; in assay [12], 0.076. Further, the binding result in assay [10], in assay [11] and in assay [12] was “no binding” in each case.

B2: 5H7 murine monoclonal anti-FLNB antibody (antibody, IgG2b, V domains shown)
VH: DVQLQESGPGLVKPSQSLSLTCSVTGYSITSGYYWNWIRQFPGNKLEWMGYISYDGSNNYNPSLKNRISITRDTSKNQFFLRLNSVTTEDTATYYCARETWASFDYWGQGTTLTVSS
VL: DIVMTQSQKFMSTTVGDRVGITCKASQNVGIAVAWYQQKPGQSPRLLIYSASYRYTGVPDRFSGSGSGTDFTLTINNMQSEDLADYFCQQYSSYPLTFGSGTKLEIK
notes: also called clone 5H7; biotin-linked monoclonal antibody specific for FLNB (5H7)
Take B2: in assay [6], the Kd was below 1 pM. This molecule showed a koff in [6] below 1e-07 s⁻¹. In assay [6], this molecule displayed a kon of 250000 M⁻¹ s⁻¹. For the same molecule, the ELISA test result in assay [7] stood at 0.123; in assay [13] it was 0.191; in [8] it was 3.48; in [9], 3.49; in [10] it was 0.05; in assay [11], 0.05. Also, the binding result in [10] and in [11] was “no binding” in each case.
